Reference: patent JP2016106147A (dated 2016)
Values joined by “and” are separate entries in the source; they are usually repeats but may differ in a detail not shown here. Equal values may be shown once. One block for each binder: values may come before it.

Columns and labels:
マウスMMP9 [1] = biological target: T1, マウスMMP9 (mouse, UniProt P41245 20-730, limits assumed); experiment: ELISA
T1 construct: The immunogen for AB0046 was a pro/catalytic domain fragment of mouse MMP9; also called mouse MMP9
T1 sequence (P41245 20-730 limits assumed): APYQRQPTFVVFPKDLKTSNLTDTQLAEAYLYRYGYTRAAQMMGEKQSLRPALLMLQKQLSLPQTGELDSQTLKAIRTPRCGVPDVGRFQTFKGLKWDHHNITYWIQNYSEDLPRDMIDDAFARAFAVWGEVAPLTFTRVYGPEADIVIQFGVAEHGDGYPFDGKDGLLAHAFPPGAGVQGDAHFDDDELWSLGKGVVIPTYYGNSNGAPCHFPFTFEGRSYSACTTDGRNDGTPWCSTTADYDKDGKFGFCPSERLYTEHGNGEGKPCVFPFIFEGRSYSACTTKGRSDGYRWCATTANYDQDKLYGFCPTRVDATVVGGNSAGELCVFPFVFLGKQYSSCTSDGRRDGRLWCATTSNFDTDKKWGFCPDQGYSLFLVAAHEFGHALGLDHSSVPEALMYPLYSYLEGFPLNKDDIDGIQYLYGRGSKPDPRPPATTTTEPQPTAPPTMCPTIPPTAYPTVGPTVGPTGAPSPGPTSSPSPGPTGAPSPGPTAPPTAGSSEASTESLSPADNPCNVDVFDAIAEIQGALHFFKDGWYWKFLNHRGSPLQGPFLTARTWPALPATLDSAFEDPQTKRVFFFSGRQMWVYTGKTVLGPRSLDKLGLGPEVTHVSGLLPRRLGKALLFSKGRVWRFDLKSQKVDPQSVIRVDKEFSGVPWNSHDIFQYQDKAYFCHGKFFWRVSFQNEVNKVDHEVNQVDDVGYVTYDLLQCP

マウスMMP9 [2] = biological target: T1, マウスMMP9; experiment: cell-based or functional assay
ヒトMMP9 [3] = biological target: T2, ヒトMMP9 (human, UniProt P14780 20-707, limits assumed); experiment: SPR
T2 construct: also called human MMP9; ゼラチナーゼ−B
T2 sequence (P14780 20-707 Q279R/R574P limits assumed): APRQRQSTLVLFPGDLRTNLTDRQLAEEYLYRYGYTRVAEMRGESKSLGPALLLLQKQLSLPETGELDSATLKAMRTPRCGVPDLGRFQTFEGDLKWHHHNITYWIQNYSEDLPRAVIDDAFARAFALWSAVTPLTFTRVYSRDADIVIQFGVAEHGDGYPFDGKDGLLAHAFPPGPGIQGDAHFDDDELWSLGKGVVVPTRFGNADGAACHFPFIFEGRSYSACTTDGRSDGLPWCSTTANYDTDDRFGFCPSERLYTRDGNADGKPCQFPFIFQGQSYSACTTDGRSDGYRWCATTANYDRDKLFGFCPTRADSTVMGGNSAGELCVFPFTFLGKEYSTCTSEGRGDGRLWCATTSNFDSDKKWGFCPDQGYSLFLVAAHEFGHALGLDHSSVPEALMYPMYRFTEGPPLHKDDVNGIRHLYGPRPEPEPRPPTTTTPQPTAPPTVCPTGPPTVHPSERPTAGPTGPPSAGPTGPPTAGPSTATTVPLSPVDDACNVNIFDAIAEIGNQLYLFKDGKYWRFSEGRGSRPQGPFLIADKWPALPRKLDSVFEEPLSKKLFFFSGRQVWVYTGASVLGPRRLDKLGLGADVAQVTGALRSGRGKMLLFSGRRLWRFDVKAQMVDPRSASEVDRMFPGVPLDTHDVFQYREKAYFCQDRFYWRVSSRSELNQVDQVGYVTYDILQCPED

ヒトMMP9 [4] = biological target: T2, ヒトMMP9; experiment: ELISA
カニクイザルMMP9 = biological target: T3, カニクイザルMMP9 (cynomolgus monkey, UniProt A0A2K5UU71 20-706); experiment: ELISA
T3 construct: also called cynomolgus MMP9; 組換えカニクイザルMMP9
T3 sequence (A0A2K5UU71 entry or part of it): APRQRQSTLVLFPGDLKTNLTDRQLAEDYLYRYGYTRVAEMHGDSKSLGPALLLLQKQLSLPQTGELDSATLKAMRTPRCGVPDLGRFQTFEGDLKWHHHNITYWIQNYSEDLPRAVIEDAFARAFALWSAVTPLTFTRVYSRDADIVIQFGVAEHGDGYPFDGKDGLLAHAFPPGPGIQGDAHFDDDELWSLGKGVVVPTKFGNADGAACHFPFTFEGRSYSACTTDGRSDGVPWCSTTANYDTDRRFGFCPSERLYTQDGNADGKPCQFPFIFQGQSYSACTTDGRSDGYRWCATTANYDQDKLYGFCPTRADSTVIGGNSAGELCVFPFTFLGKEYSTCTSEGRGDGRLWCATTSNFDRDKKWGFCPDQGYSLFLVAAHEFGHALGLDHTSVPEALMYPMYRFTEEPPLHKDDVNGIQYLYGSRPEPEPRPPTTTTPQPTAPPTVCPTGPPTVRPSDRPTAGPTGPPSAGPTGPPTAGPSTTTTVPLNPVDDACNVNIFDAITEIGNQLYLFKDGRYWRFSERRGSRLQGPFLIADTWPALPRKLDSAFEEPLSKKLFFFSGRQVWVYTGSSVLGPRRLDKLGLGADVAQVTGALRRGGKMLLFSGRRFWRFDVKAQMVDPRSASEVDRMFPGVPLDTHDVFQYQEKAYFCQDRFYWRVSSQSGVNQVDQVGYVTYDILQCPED

ラットMMP9 = biological target: T4, ラットMMP9 (rat, UniProt P50282 20-708, limits assumed); experiment: ELISA
T4 construct: also called rat MMP9; 組換えラットMMP9
T4 sequence (P50282 20-708 limits assumed): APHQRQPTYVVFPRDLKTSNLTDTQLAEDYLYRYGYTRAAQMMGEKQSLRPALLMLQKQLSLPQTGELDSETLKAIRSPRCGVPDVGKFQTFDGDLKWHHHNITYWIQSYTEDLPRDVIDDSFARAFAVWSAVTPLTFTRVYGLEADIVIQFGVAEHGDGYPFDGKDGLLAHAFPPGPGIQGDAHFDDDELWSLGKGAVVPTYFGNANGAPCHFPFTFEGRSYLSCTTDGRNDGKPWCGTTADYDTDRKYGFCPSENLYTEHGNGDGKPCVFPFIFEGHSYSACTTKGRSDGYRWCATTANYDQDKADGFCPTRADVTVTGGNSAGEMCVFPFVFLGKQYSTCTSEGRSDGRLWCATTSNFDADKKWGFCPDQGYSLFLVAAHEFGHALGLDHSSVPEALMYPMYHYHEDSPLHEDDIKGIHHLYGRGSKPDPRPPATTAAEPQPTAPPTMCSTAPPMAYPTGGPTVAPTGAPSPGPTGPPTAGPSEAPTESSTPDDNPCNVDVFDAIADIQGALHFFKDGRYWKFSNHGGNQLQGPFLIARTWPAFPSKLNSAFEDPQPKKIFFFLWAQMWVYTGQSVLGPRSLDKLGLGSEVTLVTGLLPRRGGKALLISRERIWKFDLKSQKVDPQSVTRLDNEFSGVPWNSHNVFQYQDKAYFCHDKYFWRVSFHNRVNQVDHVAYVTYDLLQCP

ヒトMMP9 [5] = biological target: T2, ヒトMMP9; experiment: cell-based or functional assay
ヒトMMP9 [6] = biological target: T2, ヒトMMP9; experiment: direct binding assay and SPR
マウスMMP9 [7] = biological target: T1, マウスMMP9; experiment: binding test (Table 2, not shown)

Kd (マウスMMP9 [1]): 0.218 nM
IC50, MMP9-mediated cleavage of fluorogenic peptide substrate Mca-PLGL-Dpa-AR-NH2 (マウスMMP9 [2]): 0.352 nM
B1: マウス抗体AB0046 (antibody, V domains shown)
VH: QVQLQQPGSVLVRPGASVKLSCTASGYTFTSYWMNWVKQRPGQGLEWIGEIYPISGRTNYNEKFKVKATLTVDTSSSTAYMDLNSLTSEDSAVYYCARSRANWDDYWGQGTTLTVSS
VL: DIQMTQTTSSLSASLGDRVTISCSASQGISNYLNWYQQKPDGTFKLLIYYTSILHSGVPSRFSGSGSGTDYSLTISNLEPEDIATYYCQQYGWLPRTFGGGTKLEIKR
notes: Mouse IgG1/kappa anti-mouse MMP9 antibody; also called AB0046; AB0046抗体

Kd (ヒトMMP9 [3]): 0.0088 nM
Kd (ヒトMMP9 [4]): < 0.4 nM and 0.168 nM
Kd (カニクイザルMMP9): < 0.4 nM
Kd (ラットMMP9): < 0.4 nM
IC50, MMP9-mediated cleavage of fluorogenic peptide substrate Mca-PLGL-Dpa-AR-NH2 (ヒトMMP9 [5]): 0.691 nM
Kd (ヒトMMP9 [6]): ~0.001 nM
B2: ヒト化変異体抗MMP9抗体AB0045(ヒト化、改変IgG4(S241P)) (antibody, V domains shown)
VH: QVQLQESGPGLVKPSETLSLTCTVSGFSLLSYGVHWVRQPPGKGLEWLGVIWTGGTTNYNSALMSRFTISKDDSKNTVYLKMNSLKTEDTAIYYCARYYYGMDYWGQGTLVTVSS
VL: DIQMTQSPSSLSASVGDRVTITCKASQDVRNTVAWYQQKPGKAPKLLIYSSSYRNTGVPDRFSGSGSGTDFTLTISSLQAEDVAVYYCQQHYITPYTFGGGTKVEIKR
notes: also called AB0045; AB0045抗体

Kd (ヒトMMP9 [3]): 0.0004 nM
Kd (カニクイザルMMP9): < 0.4 nM
Kd (ラットMMP9): < 0.4 nM
IC50, MMP9-mediated cleavage of fluorogenic peptide substrate Mca-PLGL-Dpa-AR-NH2 (ヒトMMP9 [5]): 0.569 nM
binding result (マウスMMP9 [7]): no binding
B3: マウスモノクローナル抗MMP9抗体(AB0041) (antibody, mouse IgG2b, V domains shown)
VH: QVQLKESGPGLVAPSQSLSITCTVSGFSLLSYGVHWVRQPPGKGLEWLGVIWTGGTTNYNSALMSRLSISKDDSKSQVFLKMNSLQTDDTAIYYCARYYYGMDYWGQGTSVTVSS
VL: DIVMTQSHKFMSTSVGDRVSITCKASQDVRNTVAWYQQKTGQSPKLLIYSSSYRNTGVPDRFTGSGSGTDFTFTISSVQAEDLAVYFCQQHYITPYTFGGGTKLEIK
notes: also called AB0041; AB0041抗体
